Data from publication PMC8477192, “An ionic lock and a hydrophobic zipper mediate the coupling between an insect pheromone receptor BmOR3 and downstream effectors” (The Journal of Biological Chemistry, 2021).
Blank lines part the entries; values can stand above or below the molecule they belong to.

Assays:
Rluc-BmOrco = test: intermolecular BRET; conditions: bombykal-induced, read off a plot
Rluc-BmArr = test: intermolecular BRET; conditions: read off a plot
YFP-BmOR3 [1] = target: T1, YFP-BmOR3 (Bombyx mori, UniProt Q5FBE0 1-439); test: intermolecular BRET; conditions: bombykal-induced, read off a plot
T1 construct: BmOR3, pheromone (bombykal) receptor of Bombyx mori; also called N-terminal YFP-tagged BmOR3; YFP-WT-BmOR3; source: HEK293, transfected, in living cells; not shown: YFP, N-terminal, kept
T1 sequence (looked up): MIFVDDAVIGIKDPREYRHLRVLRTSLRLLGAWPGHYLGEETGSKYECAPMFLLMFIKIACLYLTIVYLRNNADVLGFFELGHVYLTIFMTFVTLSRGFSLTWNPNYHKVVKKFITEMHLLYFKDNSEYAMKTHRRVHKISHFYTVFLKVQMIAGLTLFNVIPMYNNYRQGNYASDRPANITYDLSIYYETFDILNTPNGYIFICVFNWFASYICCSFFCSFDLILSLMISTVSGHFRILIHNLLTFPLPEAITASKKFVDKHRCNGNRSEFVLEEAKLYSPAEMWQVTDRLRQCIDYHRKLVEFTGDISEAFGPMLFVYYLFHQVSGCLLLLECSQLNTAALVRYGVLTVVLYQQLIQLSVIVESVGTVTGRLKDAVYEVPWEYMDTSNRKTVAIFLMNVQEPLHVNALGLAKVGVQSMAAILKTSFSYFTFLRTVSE

YFP-BmOR3 [2] = target: T1, YFP-BmOR3; test: FRET or BRET; arrestin recruitment BRET in living HEK293 cells; YFP-BmOR3 (WT or mutant) with Rluc-fused arrestin; bombykal for 10 min; pertussis toxin without effect; enhanced by BmOrco coexpression; conditions: partners not purified
YFP-BmOR3 [3] = target: T1, YFP-BmOR3; test: FRET or BRET; G protein recruitment BRET in living HEK293 cells; YFP-BmOR3 with Gi-Rluc; increasing bombykal for 2 min; net BRET after subtracting cells with Gi-Rluc only; net BRET also without bombykal; BmOrco coexpression without significant effect; conditions: partners not purified
[4] = HEK293 cells, parent: est. 0.053
[5] = HEK293 cells, bombykal, parent: est. 0.612
[6] = HEK293 cells, vehicle, parent: est. 0.592
[7] = HEK293 cells, parent: est. 0.027

response (Rluc-BmOrco; [4]): 0.04 ΔBRET
Molecule: YFP-BmOR3 (from UniProt Q5FBE0) L410A; L412A

response (Rluc-BmOrco; [4]): 0.042 ΔBRET
Molecule: YFP-BmOR3 (from UniProt Q5FBE0) I396A; M399A

response (Rluc-BmArr; [5]): 0.605 BRET Ratio
response (Rluc-BmArr; [6]): 0.593 BRET Ratio
Molecule: YFP-BmOR3 (from UniProt Q5FBE0) W286A

response (Rluc-BmArr; [5]): 0.605 BRET Ratio
response (Rluc-BmArr; [6]): 0.595 BRET Ratio
Molecule: YFP-BmOR3 (from UniProt Q5FBE0) W33A

response (YFP-BmOR3 [1]; [7]): 0.029 ΔBRET
Molecule: Rluc-BmOrco L451A; L458A

response (YFP-BmOR3 [1]; [7]): 0.005 ΔBRET
response (YFP-BmOR3 [1]; parent: est. 0.038): 0 ΔBRET
Molecule: Rluc-BmOrco K437E

response (Rluc-BmArr; [5]): 0.603 BRET Ratio
response (Rluc-BmArr; [6]): 0.59 BRET Ratio
Molecule: YFP-BmOR3 (from UniProt Q5FBE0) W383A

response (Rluc-BmOrco; parent: est. 0.038): 0 ΔBRET
Molecule: YFP-BmOR3 (from UniProt Q5FBE0) E403K

response (Rluc-BmOrco; [4]): 0.003 ΔBRET
response (Rluc-BmOrco; parent: est. 0.015): 0.003 ΔBRET
Molecule: YFP-BmOR3 (from UniProt Q5FBE0) F428A; F433A

response (Rluc-BmArr; bombykal-stimulated, parent: est. 0.012): 0.008 ΔBRET
Molecule: YFP-BmOR3 (from UniProt Q5FBE0) S26A

response (YFP-BmOR3 [1]; [7]): 0.031 ΔBRET
Molecule: Rluc-BmOrco F427A; I430A

B1: N-terminal Rluc-fused β-arrestin-1 (natural protein, UniProt P49407 1-418, looked up)
chain: MGDKGTRVFKKASPNGKLTVYLGKRDFVDHIDLVDPVDGVVLVDPEYLKERRVYVTLTCAFRYGREDLDVLGLTFRKDLFVANVQSFPPAPEDKKPLTRLQERLIKKLGEHAYPFTFEIPPNLPCSVTLQPGPEDTGKACGVDYEVKAFCAENLEEKIHKRNSVRLVIRKVQYAPERPGPQPTAETTRQFLMSDKPLHLEASLDKEIYYHGEPISVNVHVTNNTNKTVKKIKISVRQYADICLFNTAQYKCPVAMEEADDTVAPSSTFCKVYTLTPFLANNREKRGLALDGKLKHEDTNLASSTLLREGANREILGIIVSYKVKVKLVVSRGGLLGDLASSDVAVELPFTLMHPKPKEEPPHREVPENETPVDTNLIELDTNDDDIVFEDFARQRLKGMKDDKEEEEDGTGSPQLNNR
notes: β-arrestin-1; also called βarr1; source: HEK293, transfected, in living cells; not shown: Rluc, N-terminal, kept
EC50 of bombykal for the BRET increase (quantity not given) (YFP-BmOR3 [2]): 91.1 ± 1.61 nM

EC50 of bombykal for the BRET increase (YFP-BmOR3 [3]): 22 ± 3.22 nM
B2: Gi2-Rluc (natural protein, UniProt P04899 1-355, looked up)
chain: MGCTVSAEDKAAAERSKMIDKNLREDGEKAAREVKLLLLGAGESGKSTIVKQMKIIHEDGYSEEECRQYRAVVYSNTIQSIMAIVKAMGNLQIDFADPSRADDARQLFALSCTAEEQGVLPDDLSGVIRRLWADHGVQACFGRSREYQLNDSAAYYLNDLERIAQSDYIPTQQDVLRTRVKTTGIVETHFTFKDLHFKMFDVGGQRSERKKWIHCFEGVTAIIFCVALSAYDLVLAEDEEMNRMHESMKLFDSICNNKWFTDTSIILFLNKKDLFEEKITHSPLTICFPEYTGANKYDEAASYIQSKFEDLNKRKDTKEIYTHFTCATDTKNVQFVFDAVTDVIIKNNLKDCGLF
notes: G protein alpha subunit Gi2 (Gαi2); also called Gαi-Rluc; Rluc-tagged Gi protein; source: HEK293, transfected, in living cells

EC50 of bombykal for the BRET increase (YFP-BmOR3 [3]): 10.6 ± 2.06 nM
B3: Gi3-Rluc (natural protein, UniProt P08754 1-354, looked up)
chain: MGCTLSAEDKAAVERSKMIDRNLREDGEKAAKEVKLLLLGAGESGKSTIVKQMKIIHEDGYSEDECKQYKVVVYSNTIQSIIAIIRAMGRLKIDFGEAARADDARQLFVLAGSAEEGVMTPELAGVIKRLWRDGGVQACFSRSREYQLNDSASYYLNDLDRISQSNYIPTQQDVLRTRVKTTGIVETHFTFKDLYFKMFDVGGQRSERKKWIHCFEGVTAIIFCVALSDYDLVLAEDEEMNRMHESMKLFDSICNNKWFTETSIILFLNKKDLFEEKIKRSPLTICYPEYTGSNTYEEAAAYIQCQFEDLNRRKDTKEIYTHFTCATDTKNVQFVFDAVTDVIIKNNLKECGLY
notes: G protein alpha subunit Gi3 (Gαi3); also called Gαi-Rluc; Rluc-tagged Gi protein; source: HEK293, transfected, in living cells
